Experimental data: patent US20030165997, “Zinc finger domain libraries” (published 2003)

Key:
[1] = target: ZFP 1 RSNR-RDHT-RSNR (synthetic); assay: cell_activity; HEK293 luciferase repression of GAL4-VP16 activated reporter; details: tags: HA tag and NLS (P3 vector)
Protocol: (§1) The in vivo activity assay for a particular three-finger protein was carried out as follows. HEK 293 cells were transfected with four plasmids: 14 ng of a plasmid expressing the particular three-finger protein; 14 ng of the reporter plasmid described above; 70 ng of a plasmid that expresses GAL4-VP 16; and 1.4 ng of a plasmid that expresses Renillar luciferase. The GAL4-VP 16 activates transcription of the minimal synthetic promoter in the reporter so that the repression effected by a particular three-finger protein could be clearly detected and compared to other three-finger proteins. The plasmid expressing Renillar luciferase provides a control of transfection efficiency.
Lipofectamine (Gibco-BRL) was used for the transfection procedures. Cells were transfected at 30-50% confluency in wells of a 96 well plate. The cells were incubated for two days prior to harvesting for the luciferase assay. Then luciferase activities were measured using the Dual-Luciferase™ Reporter Assay System (Promega). The observed firefly luciferase activity was normalized using the observed level of Renilla luciferase. The extent of repression or “fold-repression” was calculated by dividing a value for normalized reporter expression in the absence of a zinc finger protein by a value for normalized reporter expression in the presence of the zinc finger protein. […]

[2] = target: ZFP 3 RDHT-QSNV2-QSSR1 (synthetic); assay: cell_activity; HEK293 luciferase repression; details: tags: HA tag and NLS (P3 vector)
Protocol: as §1
(§2) Lipofectamine (Gibco-BRL) was used for the transfection procedures. Cells were transfected at 30-50% confluency in wells of a 96 well plate. The cells were incubated for two days prior to harvesting for the luciferase assay. Then luciferase activities were measured using the Dual-Luciferase™ Reporter Assay System (Promega). The observed firefly luciferase activity was normalized using the observed level of Renilla luciferase. The extent of repression or “fold-repression” was calculated by dividing a value for normalized reporter expression in the absence of a zinc finger protein by a value for normalized reporter expression in the presence of the zinc finger protein.
(§3) A total of 153 three-finger chimeric proteins were constructed from both the “zinc finger protein-first” and the “target site-first” approaches. These proteins were tested using the transient cotransfection assay described in Example 68.

[3] = target: ZFP 15 VSNV-CSNR1-RSNR (synthetic); assay: cell_activity; HEK293 luciferase repression; details: tags: HA tag and NLS (P3 vector)
Protocol: as §1, §2, §3

[4] = target: ZFP 24 CSNR1-QSHT-RSNR (synthetic); assay: cell_activity; HEK293 luciferase repression; details: tags: HA tag and NLS (P3 vector)
Protocol: as §1, §2, §3

[5] = target: ZFP 27 RSHR-RDER1-RSHR (synthetic); assay: cell_activity; HEK293 luciferase repression; details: tags: HA tag and NLS (P3 vector)
Protocol: as §1, §2, §3

[6] = target: ZFP 7 RDHT-QSNV2-RSHR (synthetic); assay: cell_activity; HEK293 luciferase repression; details: tags: HA tag and NLS (P3 vector)
Protocol: as §1, §2, §3

[7] = target: ZFP 29 QSNR3-RDHT-RSNR (synthetic); assay: cell_activity; HEK293 luciferase repression; details: tags: HA tag and NLS (P3 vector)
Protocol: as §1, §2, §3

[8] = target: ZFP 30 RSHR-RSHR-QSHR2 (synthetic); assay: cell_activity; HEK293 luciferase repression; details: tags: HA tag and NLS (P3 vector)
Protocol: as §1, §2, §3

[9] = target: ZFP 10 RDHT-RSHR-QSHR2 (synthetic); assay: cell_activity; HEK293 luciferase repression; details: tags: HA tag and NLS (P3 vector)
Protocol: as §1, §2, §3

[10] = target: ZFP 18 RDER1-QSSR1-QSHT (synthetic); assay: cell_activity; HEK293 luciferase repression; details: tags: HA tag and NLS (P3 vector)
Protocol: as §1, §2, §3

[11] = target: ZFP 4 RSHR-RDER1-RDER1 (synthetic); assay: cell_activity; HEK293 luciferase repression; details: tags: HA tag and NLS (P3 vector)
Protocol: as §1, §2, §3

[12] = target: ZFP 33 QSNV2-RSHR-RDER1 (Homo sapiens); assay: cell_activity; HEK 293 luciferase; details: tags: HA, NLS
Protocol: as §1, §2, §3

[13] = target: T1, Zif268 zinc finger protein (three fingers) (UniProt P08046 SEQ:1-89); assay: EMSA; 20 mM Tris pH 7.7, 120 mM NaCl, 5 mM MgCl2, 20 uM ZnSO4, RT; yeast growth +++; 28-fold repression in human cells (Table 8)
[14] = target: T1, Zif268 zinc finger protein (three …); assay: EMSA; Zn2+, Mg2+, pH 7.7, RT; no yeast growth; 1.3-fold repression (Table 8)
[15] = target: ZFP 19 RDER1-VSSR-QSHT (synthetic); assay: cell_activity; HEK293 luciferase repression; details: tags: HA tag and NLS (P3 vector)
Protocol: as §1, §2, §3

[16] = target: ZFP 2 CSNR1-RSHR-RDHT (synthetic); assay: cell_activity; HEK293 luciferase repression; details: tags: HA tag and NLS (P3 vector)
Protocol: as §1, §2, §3

[17] = target: ZFP 23 RDHT-RSNR-QSNR3 (synthetic); assay: cell_activity; HEK293 luciferase repression; details: tags: HA tag and NLS (P3 vector)
Protocol: as §1, §2, §3

Sequence of ZFP 33 QSNV2-RSHR-RDER1 (Homo sapiens) (chain, as listed by the source): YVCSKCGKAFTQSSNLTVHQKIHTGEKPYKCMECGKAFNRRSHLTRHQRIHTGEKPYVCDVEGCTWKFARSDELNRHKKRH
Sequence of ZFP 2 CSNR1-RSHR-RDHT (synthetic) (chain, as listed by the source): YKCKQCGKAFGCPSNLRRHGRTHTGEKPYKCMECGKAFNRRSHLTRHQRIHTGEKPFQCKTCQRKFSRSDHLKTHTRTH
Sequence of ZFP 23 RDHT-RSNR-QSNR3 (synthetic) (chain, as listed by the source): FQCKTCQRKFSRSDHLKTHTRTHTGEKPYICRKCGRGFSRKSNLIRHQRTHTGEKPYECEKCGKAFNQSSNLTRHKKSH
Sequence of ZFP 15 VSNV-CSNR1-RSNR (synthetic) (chain, as listed by the source): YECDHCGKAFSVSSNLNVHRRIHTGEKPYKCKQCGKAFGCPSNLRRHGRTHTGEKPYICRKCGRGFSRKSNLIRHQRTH
Sequence of ZFP 18 RDER1-QSSR1-QSHT (synthetic) (chain, as listed by the source): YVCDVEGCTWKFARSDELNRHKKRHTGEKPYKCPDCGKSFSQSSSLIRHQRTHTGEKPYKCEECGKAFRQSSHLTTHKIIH
Sequence of ZFP 3 RDHT-QSNV2-QSSR1 (synthetic) (chain, as listed by the source): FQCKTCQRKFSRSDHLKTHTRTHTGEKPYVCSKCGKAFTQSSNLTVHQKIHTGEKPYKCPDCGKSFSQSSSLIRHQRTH
Sequence of ZFP 7 RDHT-QSNV2-RSHR (synthetic) (chain, as listed by the source): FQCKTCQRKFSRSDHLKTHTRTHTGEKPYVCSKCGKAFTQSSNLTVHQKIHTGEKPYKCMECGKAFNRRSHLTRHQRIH
Sequence of ZFP 29 QSNR3-RDHT-RSNR (synthetic) (chain, as listed by the source): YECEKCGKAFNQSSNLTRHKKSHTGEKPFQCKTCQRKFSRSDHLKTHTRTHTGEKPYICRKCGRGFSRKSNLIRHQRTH
Sequence of ZFP 24 CSNR1-QSHT-RSNR (synthetic) (chain, as listed by the source): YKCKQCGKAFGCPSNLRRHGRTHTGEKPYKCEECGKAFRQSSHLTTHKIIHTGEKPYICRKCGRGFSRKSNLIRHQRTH
Sequence of ZFP 10 RDHT-RSHR-QSHR2 (synthetic) (chain, as listed by the source): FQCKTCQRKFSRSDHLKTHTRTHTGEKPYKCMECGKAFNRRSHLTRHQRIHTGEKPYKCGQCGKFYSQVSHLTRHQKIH
Sequence of ZFP 27 RSHR-RDER1-RSHR (synthetic) (chain, as listed by the source): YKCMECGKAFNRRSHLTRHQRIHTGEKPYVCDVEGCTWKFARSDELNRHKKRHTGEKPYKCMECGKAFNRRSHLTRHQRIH
Sequence of ZFP 1 RSNR-RDHT-RSNR (synthetic) (chain, as listed by the source): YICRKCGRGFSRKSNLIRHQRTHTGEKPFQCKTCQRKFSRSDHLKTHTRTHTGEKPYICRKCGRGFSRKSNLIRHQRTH
Sequence of ZFP 19 RDER1-VSSR-QSHT (synthetic) (chain, as listed by the source): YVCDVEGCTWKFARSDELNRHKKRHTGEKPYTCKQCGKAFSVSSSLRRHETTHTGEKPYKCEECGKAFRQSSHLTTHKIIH
Sequence of ZFP 30 RSHR-RSHR-QSHR2 (synthetic) (chain, as listed by the source): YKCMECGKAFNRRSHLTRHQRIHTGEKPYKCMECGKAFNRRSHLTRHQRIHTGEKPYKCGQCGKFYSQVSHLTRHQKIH
Sequence of ZFP 4 RSHR-RDER1-RDER1 (synthetic) (chain, as listed by the source): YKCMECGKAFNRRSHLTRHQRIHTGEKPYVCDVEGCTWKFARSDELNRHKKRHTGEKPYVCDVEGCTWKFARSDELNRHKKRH

B1: target 1 (dsDNA)
DNA 1: GAGAGGGAGC
DNA 2: GCTCCCTCTC
- activity [1]: 8.1 fold repression

B2: target 3 (dsDNA)
DNA 1: GCACAATGG
DNA 2: CCATTGTGC
- activity [2]: 4 fold repression

B3: target 15 (dsDNA)
DNA 1: GAGGACAATG
DNA 2: CATTGTCCTC
- activity [3]: 2.5 fold repression

B4: target 24 (dsDNA)
DNA 1: GAGTGAGACC
DNA 2: GGTCTCACTC
- activity [4]: 2.1 fold repression

B5: target 27 (dsDNA)
DNA 1: GGGGTGGGG
DNA 2: CCCCACCCC
- activity [5]: 2 fold repression

B6: target 7 (dsDNA)
DNA 1: GGGAAACGGG
DNA 2: CCCGTTTCCC
- activity [6]: 3.6 fold repression

B7: target 29 (dsDNA)
DNA 1: GAGTGGGAAA
DNA 2: TTTCCCACTC
- activity [7]: 2 fold repression

B8: target 30 (dsDNA)
DNA 1: GGAGGGGGGC
DNA 2: GCCCCCCTCC
- activity [8]: 2 fold repression

B9: target 10 (dsDNA)
DNA 1: GGAGGGTGG
DNA 2: CCACCCTCC
- activity [9]: 3.1 fold repression

B10: target 18 (dsDNA)
DNA 1: CGAGCAGCG
DNA 2: CGCTGCTCG
- activity [10]: 2.2 fold repression

B11: target 4 (dsDNA)
DNA 1: GCGGCGGGGC
DNA 2: GCCCCGCCGC
- activity [11]: 3.8 fold repression

B12: target 33 (dsDNA)
DNA 1: GTGGGGAAAA
DNA 2: TTTTCCCCAC
- activity [12]: 1.9 fold repression

B13: GCGT probe (dsDNA)
DNA 1: CCGGGTCGCGCGTGGGCGGTACCG
DNA 2: TCGACGGTACCGCCCACGCGCGAC
- Kd [13]: 0.024 nM

B14: ACAT probe (dsDNA)
DNA 1: CCGGGTCGGACATGGGCGGTACCG
DNA 2: TCGACGGTACCGCCCATGTCCGAC
- Kd [14]: 1.3 nM

B15: target 19 (dsDNA)
DNA 1: CGAGTTGCG
DNA 2: CGCAACTCG
- activity [15]: 2.1 fold repression

B16: target 2 (dsDNA)
DNA 1: TGGGGGGACA
DNA 2: TGTCCCCCCA
- activity [16]: 4.5 fold repression

B17: target 23 (dsDNA)
DNA 1: GAAGAGAGGT
DNA 2: ACCTCTCTTC
- activity [17]: 2.1 fold repression
